Laboratory results published in patent publication US20260055188A1 (SHENGHE CHINA BIOPHARMACEUTICAL, published 2026).
Read-outs that look alike come from different tables or passages of the source.

T1: Human-TNFR2-His (manufacturer: SINO, CAT: 10417-H08H) (human, UniProt P20333 23-257)
T1 construct: Bought protein; also called human TNFR2 protein; TNFR2 protein; not shown: His tag
T1 sequence (looked up): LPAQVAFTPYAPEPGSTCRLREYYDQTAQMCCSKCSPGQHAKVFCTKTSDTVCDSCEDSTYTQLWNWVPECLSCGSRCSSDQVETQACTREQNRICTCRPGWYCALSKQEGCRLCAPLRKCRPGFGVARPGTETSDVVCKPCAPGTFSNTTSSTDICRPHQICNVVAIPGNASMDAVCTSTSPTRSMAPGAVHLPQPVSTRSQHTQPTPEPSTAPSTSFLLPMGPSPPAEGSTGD

T2: Human-B7H3 His (manufacturer: Acro, CAT: TB73-H52E2) (human, UniProt Q5ZPR3-2 29-245)
T2 construct: also called human B7H3 protein; B7H3 protein; not shown: His tag
T2 sequence (looked up): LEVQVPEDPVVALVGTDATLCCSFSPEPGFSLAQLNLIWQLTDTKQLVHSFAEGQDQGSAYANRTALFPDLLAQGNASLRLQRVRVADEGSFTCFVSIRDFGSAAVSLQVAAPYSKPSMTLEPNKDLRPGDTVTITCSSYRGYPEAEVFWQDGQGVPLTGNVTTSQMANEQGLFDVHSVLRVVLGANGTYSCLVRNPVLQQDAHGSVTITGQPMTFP


What was measured:
[1] = target: T1, Human-TNFR2-His (manufacturer: SINO, …); assay: bridging ELISA: Human-B7H3 Fc coated (0.5 µg/mL), antibody titrated, then Human-TNFR2-His (0.5 µg/mL), HRP-labeled anti-His detection, OD450 (Example 4); the signal needs both proteins bound at once
Description: Human-B7H3 Fc (manufacturer: Acro, CAT: B73-H5253, LOT: 2053b-201XF1-UD) was diluted to 0.5 μg/mL with a coating solution (1×PBS, pH7.4) and coated into a 96-well ELISA plate at 100 μL/well at 4° C. overnight. The coating solution was poured off. Each well was washed with 1×PBST at 300 μL, washed 4 times with a plate washer, and patted dry on a flat paper. It was blocked with 3% skim milk powder at 300 μL/well, and incubated at 37° C. for 1 h. The blocking solution was poured off, washed 4 times with a plate washer, and patted dry on a flat paper. […] Starting at 300 nM, which was used as the initial concentration for 3-fold dilution, a total of 8 gradients were diluted, and a blank well was set up, and only diluent was added. It was incubated at 37° C. for 1 h at 100 μL/well. The liquid in the well was discarded, washed 4 times with a plate washer, and patted dry on a flat paper. Human-TNFR2-His (manufacturer: Sino, CAT: 10417-H08H, LOT: LC12SE2902) was diluted to 0.5 μg/mL, 100 μL was added to each well, and incubated at room temperature for 1 h. The plate was washed 3 times with PBST, and then the HRP-labeled his antibody was diluted with sample diluent at 1:10000, 100 μL was added to each well, and incubated at room temperature for 1 h. It was washed 6 times with a plate washer, and patted dry on a flat paper. TMB color developing solution was added at 100 μL/well, and wrapped with aluminum foil. Color development was performed at 37° C. in the dark for 8 min. Termination solution 1M HCl was added to terminate the color development reaction at 100 μL/well. Readings were taken at 450 nm on an ELISA reader.

[2] = target: T2, Human-B7H3 His (manufacturer: Acro, …); assay: ELISA: Human-B7H3 His coated (0.3 µg/mL), antibody titrated, goat anti-human IgG Fc detection, OD450 (Example 3)
Description: (§1) Human-B7H3 His (manufacturer: Acro, CAT: TB73-H52E2, LOT: 2052-21AXF1-YS) was diluted to 0.3 μg/mL with a coating solution (1×PBS, pH7.4), and coated into a 96-well ELISA plate at 100 μL/well overnight at 4° C. The coating solution was poured off. Each well was washed with 1×PBST at 300 μL, washed 4 times with a plate washer, and patted dry on a flat paper. It was blocked with 3% skim milk powder at 300 μL/well, and incubated at 37° C. for 1 h. The blocking solution was poured off, washed 4 times with a plate washer, and patted dry on a flat paper. Negative control and positive control were set up. […] The variable region of the antibody sequence of the positive control consists of SEQ ID NO: 1 and SEQ ID NO: 5, with the constant region of human IgG1 added (SEQ ID NO: 85 and SEQ ID NO: 86). The positive control and antibody were diluted to 10 μg/mL with 3% skim milk powder as the starting concentration, and then diluted by 3-fold gradient (11 gradients in total). A blank well was set up and only the diluent was added. It was incubated at 37° C. for 1 h at 100 μL/well. The liquid in the well was discarded, washed 4 times with a plate washer, and patted dry on a flat paper. Goat anti-human IgG Fc was diluted with 3% skim milk powder at 1:20000, and incubated at 37° C. for 1 h at 100 μL/well. It was washed 6 times with a plate washer, and patted dry on a flat paper. TMB color developing solution was added at 100 μL/well, and wrapped with aluminum foil. Color development was performed at 37° C. in the dark for 8 min. Termination solution 1M HCl was added to terminate the color development reaction at 100 μL/well. Readings were taken at 450 nm on an ELISA reader.

[3] = target: T2, Human-B7H3 His (manufacturer: Acro, …); assay: as above; remark: listed apart in the source
Description: as §1

[4] = target: T1, Human-TNFR2-His (manufacturer: SINO, …); assay: ELISA: Human-TNFR2-His coated (0.3 µg/mL), antibody titrated, goat anti-human IgG Fc detection, OD450 (Example 2)
Description: Human-TNFR2-His (manufacturer: SINO, CAT: 10417-H08H, LOT: LC15NO0412) was diluted to 0.3 μg/mL with a coating solution (1×PBS, pH7.4), and coated into a 96-well ELISA plate at 100 μL/well overnight at 4° C. The coating solution was poured off. Each well was washed with 1×PBST at 300 μL, washed 4 times with a plate washer, and patted dry on a flat paper. It was blocked with 3% skim milk powder at 300 μL/well, and incubated at 37° C. for 1 h. The blocking solution was poured off, washed 4 times with a plate washer, and patted dry on a flat paper. Negative control and positive control were set up. […] The positive control and antibody were diluted to 10 μg/mL with 3% skim milk powder as the starting concentration, and then diluted by 3-fold gradient (11 gradients in total). A blank well was set up and only the diluent was added. It was incubated at 37° C. for 1 h at 100 μL/well. The liquid in the well was discarded, washed 4 times with a plate washer, and patted dry on a flat paper. Goat anti-human IgG Fc was diluted with 3% skim milk powder at 1:20000, and incubated at 37° C. for 1 h at 100 μL/well. It was washed 6 times with a plate washer, and patted dry on a flat paper. TMB color developing solution was added at 100 μL/well, and wrapped with aluminum foil. Color development was performed at 37° C. in the dark for 8 min. Termination solution 1M HCl was added to terminate the color development reaction at 100 μL/well. Readings were taken at 450 nm on an ELISA reader.

[5] = target: T1, Human-TNFR2-His (manufacturer: SINO, …); assay: flow cytometry, bridging: CHOK1-18.2 cells (human Claudin18.2) + 150 nM antibody + human TNFR2-His, anti-His FITC detection
Description: Human TNFR2 protein (SINO, CAT: 10417-H08H) was sequentially added into 96-well plate with 100 μL/well, and after mixing, the 96-well plate was incubated at 4° C. for 1 h. Pre-cooled dilution was added and washed once, centrifuged (3000 rpm, 3 min), and the supernatant was discarded, and the cells were harvested. Fluorescent secondary antibody Anti-6X-his tag antibody (FITC) (manufacturer: abcam, Cat. No.: ab1206, Lot No.: GR3420599-3) was taken and diluted at the used concentration of 1:500. 100 μL of dilution was added to the blank control group, and 100 μL of fluorescent secondary antibody dilution was added to the rest of the sample groups respectively. After incubation for 0.5 h at room temperature and 4° C. protected from light, PBS was added to wash and centrifuged (3000 rpm, 3 min) twice. After discarding the supernatant, 80 μL of the dilution was added and resuspended.

binding result [1] | EC50 (read off the curve) [2] | EC50 (read off the curve) [3] [nM] | Binder | also measured
binds | – | – | TB-G (bispecific antibody, human IgG1, kappa, also called antibody TB-G) light: DIVMTQSPATLSVTPGDRVSLSCRASQSISDYLHWYQQKSHESPRLLIKYASQSISGIPSRFSGSGSGSDFTLSINSVEPEDVGVYYCQNGHSFPLTFGAGTKLELKRTVAAPSVFIFPPSDEQLKSGTASVVCLLNNFYPREAKVQWKVDNALQSGNSQESVTEQDSKDSTYSLSSTLTLSKADYEKHKVYACEVTHQGLSSPVTKSFNRGECGGGGSGGGGSEVQLVESGGGLVQPGGSLRLSCAASGSRLDYYAVAWFRQAPGKEREEVSCITYSGGSTNYAESVKGRFTISRDNSKNTLYLQMNSLRAEDTAVYYCTTEPYGSSCPLSGYDTWGQGTLVTVSS heavy: not shown | –
binds | ~0.2 µg/mL | – | TB-F (bispecific antibody, human IgG1, kappa, also called antibody TB-F) light: EVQLVQSGAEVKKPGATVKISCKVSGYSITDYLLHWVQQAPGKCLEWMGWIDPEDAKTKYGQKFQSRVTITADTSTDTAYMELSSLRSEDTAVYYCAANSGTGTMDAWGQGTLVTVSSGGGGSGGGGSGGGGSDIVMTQSPATLSVSPGERATLSCKASQNVGSNVDWYQQKPGQSPRVLIYKASIRYTGIPARFSGSGSGTEFTLTISILQSEDFAVYFCMQSKSYPITFGCGTKLEIKGGGGSGGGGSGGGGSDIVMTQSPATLSVTPGDRVSLSCRASQSISDYLHWYQQKSHESPRLLIKYASQSISGIPSRFSGSGSGSDFTLSINSVEPEDVGVYYCQNGHSFPLTFGAGTKLELKRTVAAPSVFIFPPSDEQLKSGTASVVCLLNNFYPREAKVQWKVDNALQSGNSQESVTEQDSKDSTYSLSSTLTLSKADYEKHKVYACEVTHQGLSSPVTKSFNRGEC heavy: not shown | –
binds | ~0.2 µg/mL | – | TB-H (bispecific antibody, human IgG1, kappa, also called antibody TB-H) light: EVQLVESGGGLVQPGGSLRLSCAASGSRLDYYAVAWFRQAPGKEREEVSCITYSGGSTNYAESVKGRFTISRDNSKNTLYLQMNSLRAEDTAVYYCTTEPYGSSCPLSGYDTWGQGTLVTVSSGGGGSGGGGSGGGGSDIVMTQSPATLSVTPGDRVSLSCRASQSISDYLHWYQQKSHESPRLLIKYASQSISGIPSRFSGSGSGSDFTLSINSVEPEDVGVYYCQNGHSFPLTFGAGTKLELKRTVAAPSVFIFPPSDEQLKSGTASVVCLLNNFYPREAKVQWKVDNALQSGNSQESVTEQDSKDSTYSLSSTLTLSKADYEKHKVYACEVTHQGLSSPVTKSFNRGEC heavy: not shown | –
– | – | ~2 | TB-C2 (bispecific antibody, human IgG4 S228P, kappa, also called antibody TB-C2) light: DIVMTQSPATLSVTPGDRVSLSCRASQSISDYLHWYQQKSHESPRLLIKYASQSISGIPSRFSGSGSGSDFTLSINSVEPEDVGVYYCQNGHSFPLTFGAGTKLELKRTVAAPSVFIFPPSDEQLKSGTASVVCLLNNFYPREAKVQWKVDNALQSGNSQESVTEQDSKDSTYSLSSTLTLSKADYEKHKVYACEVTHQGLSSPVTKSFNRGEC heavy: not shown | binding result [4]: binds
– | – | ~1 | TB-D2 (bispecific antibody, human IgG4 S228P, kappa, also called antibody TB-D2) light: DIVMTQSPATLSVTPGDRVSLSCRASQSISDYLHWYQQKSHESPRLLIKYASQSISGIPSRFSGSGSGSDFTLSINSVEPEDVGVYYCQNGHSFPLTFGAGTKLELKRTVAAPSVFIFPPSDEQLKSGTASVVCLLNNFYPREAKVQWKVDNALQSGNSQESVTEQDSKDSTYSLSSTLTLSKADYEKHKVYACEVTHQGLSSPVTKSFNRGEC heavy: not shown | binding result [4]: binds
– | – | – | TC-B2 (bispecific antibody, human IgG1, kappa) light: EIVMTQSPPTLSLSPGERVTLSCKSSQSLLNSGNQKNYLTWYQQKPGQAPRLLIYWASTRESSIPARFSGSGSGTDFTLTISSLQPEDFAVYYCQNNYIYPLTFGGGTKLELKRTVAAPSVFIFPPSDEQLKSGTASVVCLLNNFYPREAKVQWKVDNALQSGNSQESVTEQDSKDSTYSLSSTLTLSKADYEKHKVYACEVTHQGLSSPVTKSFNRGEC heavy: not shown | E1 Mean FITC-A [5]: 139000
– | ~0.3 nM | ~0.2 | Positive Control (antibody, V domains shown) VH: QVQLQQSGAELVKPGASVKLSCKASGYTFTNYDINWVRQRPEQGLEWIGWIFPGDGSTQYNEKFKGKATLTTDTSSSTAYMQLSRLTSEDSAVYFCARQTTATWFAYWGQGTLVTVSA VL: DIVMTQSPATLSVTPGDRVSLSCRASQSISDYLHWYQQKSHESPRLLIKYASQSISGIPSRFSGSGSGSDFTLSINSVEPEDVGVYYCQNGHSFPLTFGAGTKLELK | –
